Target: native, highly purified SAP2 preparation (Candida albicans, UniProt P0CS83 57-398)
Test: cell-based or functional assay

Chain of native, highly purified SAP2 preparation (P0CS83 57-398 limits assumed): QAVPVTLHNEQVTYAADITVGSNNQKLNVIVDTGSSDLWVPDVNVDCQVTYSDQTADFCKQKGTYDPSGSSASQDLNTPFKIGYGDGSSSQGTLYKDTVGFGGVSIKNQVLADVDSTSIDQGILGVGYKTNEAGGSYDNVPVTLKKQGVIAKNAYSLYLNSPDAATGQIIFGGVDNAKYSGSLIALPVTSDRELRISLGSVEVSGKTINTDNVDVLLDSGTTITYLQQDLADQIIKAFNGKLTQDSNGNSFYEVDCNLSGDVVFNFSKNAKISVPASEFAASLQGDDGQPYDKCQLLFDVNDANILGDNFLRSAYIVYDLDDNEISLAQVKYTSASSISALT

| Molecule | % Inhibition (BSA degradation, proteinase enzyme assay) [%] | ΔOD/ml/min (BSA degradation, proteinase enzyme assay) |
| --- | --- | --- |
| pepstatin A (peptide) | 100 | 0.36 ΔOD/ml/min |
| ADR4-3 (other) EVQLLESGGGLVQPGGSLRLSCAASGFTFAQYRMAWVRQAPGKGLEWVSQINAQGTQTGYADSVKGRFTISRDNSKNTLYLQMNSLRAEDTAVYYCAKWVGGARYTFDYWGQGTLVTVSS | 40 | 0.66 ΔOD/ml/min |
| ADR4-4 (other) EVQLLESGGGLVQPGGSLRLSCAASGFTFLDYQMSWVRQAPGKGLEWVSGISRSGNKTKYADSVKGRFTISRDNSKNTLYLQMNSLRAEDTAVYYCAKWAGLNRHDFDYWGQGTLVTVSS | 32 | 0.76 ΔOD/ml/min |
| ADR4-5 (other) EVQLLESGGGLVQPGGSLRLSCAASGDRISSEFMGWVRQAPGKGLEWVSAIYKPNGSTYYADSVKGRFTISRDNSKNTLYLQMNSLRAEDTAVYYCARGRARRTESTYQLRYWGQGTLVTVSS | 0 | 1 ΔOD/ml/min |
| ADR4-6 (other) EVQLLESGGGLVQPGGSLRLSCAASGFRVSNYDLTWVRQAPGKGLEWVSTISATNGSTYYADSVKGRFTISRDNSKNTLYLQMNSLRAEDTAVYYCAAVTWWLLRHNDNLGFWGQGTLVTVSS | 78 | 0.5 ΔOD/ml/min |
| ADR4-7 (other) EVQLLESGGGLVQPGGSLRLSCAASGYSVTYQNMAWVRQAPGKGLEWVSTITVPNGSTYYADSVKGRFTISRDNSKNTLYLQMNSLRAEDTAVYYCAGLGEVLRDGNANVQFWGQGTLVTVSS | 61 | 0.7 ΔOD/ml/min |
| ADR4-8 (other) EVQLLESGGGLVQPGGSLRLSCAASGFSLSYKVMGWVRQAPGKGLEWVSAINRENGSTYYADSVKGRFTISRDNSKNTLYLQMNSLRAEDTAVYYCAGFARRGAPHSASVEFWGQGTLVTVSS | 0 | 1 ΔOD/ml/min |
| ADR4-9 (other) EVQLLESGGGLVQPGGSLRLSCAASGVRLSHQVMGWVRQAPGKGLEWVSAIRSSDGSTYYADSVKGRFTISRDNSKNTLYLQMNSLRAEDTAVYYCAGWRSAKSQMHYWGQGTLVTVSS | 5 | 0.93 ΔOD/ml/min |
| ADR4-10 (other) EVQLLESGGGLVQPGGSLRLSCAASGVSVSAYTMSWVRQAPGKGLEWVSAILKKNGSTYYADSVKGRFTISRDNSKNTLYLQMNSLRAEDTAVYYCAGRPSVTFGGPGKRYDYHFQYWGQGTLVTVSS | 13 | 0.83 ΔOD/ml/min |
| ADR4-11 (other) EVQLLESGGGLVQPGGSLRLSCAASGVIFTDQTMGWVRQAPGKGLEWVSAIKTRDGSTYYADSVKGRFTISRDNSKNTLYLQMNSLRAEDTAVYYCARFLRPNASRGSAREAQIHSWGQGTLVTVSS | 29 | 0.8 ΔOD/ml/min |
| ADR4-12 (other) EVQLLESGGGLVQPGGSLRLSCAASGDTVSSKAMAWVRQAPGKGLEWVSGIFIPNGSTYYADSVKGRFTISRDNSKNTLYLQMNSLRAEDTAVYYCAAKQRAVLSRWGSSTEFGSWGQGTLVTVSS | 60 | 0.6 ΔOD/ml/min |
| ADR4-13 (other) EVQLLESGGGLVQPGGSLRLSCAASGFSISYKNMAWVRQAPGKGLEWVSAIKAANGSTYYADSVKGRFTISRDNSKNTLYLQMNSLRAEDTAVYYCATGSQKKRTYTFDFWGQGTLVTVSS | 82 | 0.46 ΔOD/ml/min |

From patent publication US20080193450A1 (ISTITUTO SUPERIORE DI SANITA, published 2008)
